Experimental data as given in article doi:10.1101/2022.12.21.521443 (2022).

Target: S. cerevisiae Pbs2 target peptide (S. cerevisiae, UniProt P08018)
Sequence (P08018 whole entry): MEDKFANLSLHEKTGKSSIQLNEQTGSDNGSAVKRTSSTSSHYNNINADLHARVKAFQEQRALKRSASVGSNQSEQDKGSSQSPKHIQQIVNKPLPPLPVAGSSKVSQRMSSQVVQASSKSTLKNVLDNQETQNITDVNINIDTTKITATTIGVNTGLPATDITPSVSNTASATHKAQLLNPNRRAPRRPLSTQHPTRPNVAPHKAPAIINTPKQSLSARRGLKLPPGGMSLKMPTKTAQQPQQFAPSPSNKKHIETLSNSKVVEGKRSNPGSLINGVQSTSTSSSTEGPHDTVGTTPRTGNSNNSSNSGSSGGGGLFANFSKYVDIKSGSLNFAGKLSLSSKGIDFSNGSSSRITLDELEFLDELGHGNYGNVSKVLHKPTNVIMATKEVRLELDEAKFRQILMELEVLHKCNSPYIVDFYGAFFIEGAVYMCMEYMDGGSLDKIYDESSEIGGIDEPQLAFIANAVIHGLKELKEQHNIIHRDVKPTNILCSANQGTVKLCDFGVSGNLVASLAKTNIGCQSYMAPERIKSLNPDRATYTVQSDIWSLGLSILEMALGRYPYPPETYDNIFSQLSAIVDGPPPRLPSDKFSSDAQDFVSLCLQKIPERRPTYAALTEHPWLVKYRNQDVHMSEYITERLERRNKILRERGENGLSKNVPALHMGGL

B1: wild-type S. cerevisiae Sho1 SH3 domain (domain or fragment)
chain: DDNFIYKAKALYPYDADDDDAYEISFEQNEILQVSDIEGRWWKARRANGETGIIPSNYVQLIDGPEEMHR
  Kd: 3000 nM
